Reference: the Human Domainome abundance scans (Beltran et al. 2025)

B1: SWI/SNF complex subunit SMARCC2, residues 599 to 641; numbered along this chain, Q8TAQ2 (parent)
chain: REWTEQETLLLLEALEMYKDDWNKVSEHVGSRTQDECILHFLR
B2: SWI/SNF complex subunit SMARCC1, residues 620 to 663; numbered along this chain, Q92922 (parent)
chain: GREWTEQETLLLLEALEMYKDDWNKVSEHVGSRTQDECILHFLR

Variants of: B1
Test: abundance fitness (aPCA) (normalised: wild type 0, dead -1); higher = more abundant; growth selection in yeast, the domain comes from the species named
Details: Homo sapiens

Abundance fitness, by site and new letter:
D35: I -0.388 | P 0.066 | Q 0.378 | A 0.121 | E -0.035 | F -0.284 | T -0.213 | H 0.108 | V -0.556 | K 0.047 | N 0.236 | M 0.008 | R 0.027 | Y -0.486 | G 0.046 | S 0.087
I38: K 0.347 | Y 0.077 | L 0.12 | P -0.367 | H 0.415 | S 0.224 | D -0.015 | F 0.023 | M 0.151 | G 0.401 | N 0.274 | W -0.24 | V -0.019 | A 0.149 | Q 0.098 | C 0.203 | T 0.26 | E 0.351 | R 0.428
H40: M -0.148 | I -0.431 | L -0.41 | R 0.096 | Y 0.272 | D -0.173 | S -0.383 | T -0.27 | W -0.139 | G -0.178 | V -0.376 | A -0.081 | Q -0.052 | P -0.589 | N -0.343
L39: W -0.29 | H 0.16 | G 0.149 | P -0.24 | Q 0.08 | I -0.21 | V -0.009 | N 0.024 | R 0.122 | F -0.024 | S 0.071 | Y -0.108 | D 0.642 | A 0.154 | E 0.335 | T 0.235
F41: D 0.344 | P 0.43 | S 0.324 | E 0.354 | Y 0.185 | C -0.425 | Q 0.375 | R 0.501 | V -0.452 | N 0.581 | H 0.442 | G 0.417 | T 0.047 | L -0.487 | I -0.299 | M 0.059
E36: M -0.897 | V -1.15 | D -0.003 | K -0.507 | H -0.196 | R -0.873 | F -0.523 | L -1.02 | Q 0.08 | G -0.844 | W -0.855 | A -0.446 | P -0.783
Q34: M -0.282 | S 0.056 | I -0.074 | L -0.073 | P 0.02 | C 0.104 | F -0.029 | D -0.048 | Y 0.03 | R 0.014 | K 0.316 | W -0.577 | H 0.058 | N 0.051 | T 0.185 | V -0.018
C37: H -0.353 | Q -0.2 | K -0.328 | T -0.525 | V -0.134 | E -0.598 | A -0.332 | F -0.361 | W -0.924 | S -0.428 | N -0.67 | R -0.697 | L -0.844 | P -0.708 | D -0.471 | G -0.833
L42: T 0.519 | G 0.447 | F 0.139 | H 0.615 | K 0.895 | W 0.049 | Q 0.351 | V 0.343 | R 0.589 | D 0.726 | M 0.167 | A 0.334 | S 0.376

Variants of: B2
Test: as above
Details: Homo sapiens

Abundance fitness: each site, then its substitutions
E14: C -0.684 | G -0.27 | A 0.007 | D -0.177
T5: G -0.755 | Y -0.116 | L -0.174 | V -0.461 | K 0.03 | H -0.513 | C -0.14 | I -0.201 | E 0.081 | A -0.363 | W -0.693 | N -0.086 | Q -0.127 | M 0.11 | P -0.572 | R -0.241 | D -0.069
Q7: I 0.341 | T 0.075 | G -0.052 | R 0.206 | L -0.578 | V -0.227 | P -0.381
L13: T 0.531 | Y -0.229 | Q -0.197 | R 0.127 | I 0.044 | V -0.126 | D 0.01 | W -0.314 | S -0.259 | A 0.285 | H -0.166
T9: H -0.023 | G -0.098 | L -0.044 | M 0.037 | W -0.595 | K 0.158 | E -0.037 | R 0.252 | F 0.004 | Y -0.022 | A -0.085 | P -0.449 | S -0.01 | D -0.075 | C -0.015 | N -0.04 | I 0.264 | Q 0.319
L10: H 0.084 | M -0.21 | P -0.287 | F -0.008 | A -0.019 | W -0.137 | T 0.237 | N -0.247 | Y -0.407 | Q 0.251 | I -0.016 | V -0.04 | C 0.243 | K 0.176 | R 0.158 | E 0.082 | S 0.147
R2: A 0.288 | F 0.253 | G -0.051 | N 0.288 | Y -0.04 | E 0.145 | Q -0.298 | I 0.415 | T 0.174 | L -0.719 | W -0.023 | C 0.084 | V 0.086 | D 0.237 | K 0.244 | S -0.147
E3: M -0.063 | G 0.158 | D 0.311 | W -0.674 | L -0.03 | A -0.04 | C -0.353 | Y 0.229 | S 0.329 | P 0.077 | F 0.178 | Q 0.12 | V 0.312
L12: E -0.129 | S -0.651 | Y -0.103 | T -0.602 | C -0.401 | V -0.341 | R -0.718 | Q -0.372 | A -0.213 | M -0.32 | N -0.938 | K -0.428 | D -0.259 | F 0.016 | P -0.709 | H -0.413 | G 0.009
E8: V -1 | H -0.54 | W -1.06 | M -0.482 | D -0.76 | C -0.616 | L -0.936 | A -0.808 | G -0.861 | F -0.702 | P -0.593 | I -0.746 | Q -0.098 | T -0.651 | N -0.584 | S -1.01 | Y -1.21
L11: N -0.304 | P -0.58 | S 0.024 | K 0.021 | E -0.281 | W -0.258 | G -0.154 | F -0.096 | R -0.139 | D -0.19 | M 0.138 | T 0.016 | A -0.134 | I -0.29 | C -0.521 | V -0.064
W4: T -0.134 | I 0.253 | H -0.4 | A -0.254 | D -0.168 | C -0.526 | R -0.084 | L -0.285 | N -0.265 | M -0.141 | E 0.023 | S -0.08 | Y -0.23 | G -0.153 | V -0.147
E6: G -0.194 | V -0.227 | P -0.264 | C -0.069 | T -0.12 | M 0.099 | K 0.181 | A 0.071 | Q 0.212 | I -0.12 | R -0.137 | W -0.155 | D -0.164 | L -0.234 | N -0.17 | Y -0.178 | S -0.441 | F -0.265
G1: H -0.147 | F -0.122 | A 0.081 | I 0.128 | R -0.383 | D 0.277 | W -0.293 | Y 0.191
